# Like-named read-outs stand apart in the source and are kept apart here.
# Experiments:
# [1] = biological target: T1, human Notch3-Gal4 chimeric receptor on U2OS FlpIn TREx cells (human, UniProt Q9UM47 40-2321); assay: cell-based or functional assay
# [2] = biological target: T2, human full-length Notch1 with C-terminal FLAG tag, stably expressed on 293 FlpIn (TREx) cells (human, UniProt P46531 19-2555); assay: FACS, hN1 293 cells, MFI grade (++++ >1000)
# T2 construct: tetracycline/doxycycline-induced expression from pcDNA5/FRT/TO-HN1+FLAG; also called hN1; 293_N1
# Protocol: (§1) Notch 293 FlpIn (TREx) cells were treated with dox (2 ug/ml) for two days to induce Notch expression before collecting them for FACS surface expression analysis. The cells were harvested from tissue culture flasks using Trypsin for 15 min, centrifuged at 1200 rpm for 10 minutes and resuspended in 2 ml PBS with 2% fetal bovine serum (2% FBS/PBS). The cells were counted, adjusted to 10⁷ cells/ml and 0.1 ml of cells was incubated with 1 ug of each Mab for 40 minutes at 4° C. The cells were washed, resuspended in 0.1 ml 2% FBS/PBS and incubated with 1 ug R-PE-conjugated goat anti-human Ig (Jackson ImmunoResearch) for 30 minutes at 4° C. Cells were washed, resuspended in 0.3 ml PBS with 10% formaldehyde and analyzed on a FACSCalibur (Becton Dickinson, Mt View, Calif.).
# Clones were analyzed as described in Section I-Example 12. We analyzed the corresponding Mabs for their binding to 293-N1, -N3 and 293 parental cells by flow cytometry.
# [3] = biological target: T3, Notch1 extracellular fragment (amino acid 19-526) Fc fusion protein, R&D Systems 3647-TK (human, UniProt P46531 19-526); assay: titration ELISA, antigen coated, purified IgG1
# T3 construct: bought protein; also called Notch1/Fc; Notch1-ECD Fc fusion protein; not shown: Fc of the bought fusion protein
# Protocol: Plates were blocked with 300 ul of milk blocker per well and incubated for 2 hour at RT. […] After washing plates with PBS or TBS buffer, anti-human lambda light chain antibody with HRP was used for detection antibody and absorbance at 450 nm was read with a plate reader.
# [4] = biological target: T1, human Notch3-Gal4 chimeric receptor on …; assay: cell-based or functional assay; remark: listed apart in the source
# [5] = biological target: T2, human full-length Notch1 with …; assay: FACS, hN1 293 cells, MFI grade (+ 11-100)
# Protocol: as §1
# [6] = biological target: T3, Notch1 extracellular fragment (amino …); assay: BIAcore SPR, Notch1/Fc on CM5, Mab analyte, 1:1 binding
# Protocol: All experiments were performed at 25° C. at a flow rate of 40 μl/min. […] FC1 was used as the reference cell. Specific signals were the results of differences of signals obtained on FC2 versus FC1. […] The dissociation phase of the analyte was monitored over a period of time ranging 10-30 minutes. Running buffer was also injected under the same conditions as a reference.
# Equilibrium dissociation constant (KD) was calculated by the ratio between dissociation (koff) and association (kon) rate constants.
"hN3, inhibition of Luc activity at [166 nM] Mab [1] [%]",MFI [2] [mfi],"hN3, inhibition of Luc activity at [166 nM] Mab [4] [%]",Binder,also measured
–,–,< 10,"WC-159 (antibody, human IgG1, lambda, V domains shown, also called N1wc159) VH: QLQLVETGGGLVKPGESLTLSCAASGFTFSSYSMNWVRQAPGKGLEWVSSISSSGSSIYYADSLKGRFTISRDNAKNSLYLQMNSLRAEDTAVYYCTRGTQWLAGVGDYWGKGTLVTVSS VL: QSALTQPPSASASPGQSVTISCTGTSSDVGAYDSVSWYQQHPGKAPKLIIYDVNNRPSGVSNRFSGSESGNTASLTISGLQAEDEANYYCSSYRNTKTVVFGGGTKLTVLQ",EC50 [3]: 0.12 nM
< 5,> 1000,–,"FL-SKNAS-D2-268 (antibody, human IgG1, lambda, V domains shown, full IgG1/lambda chains; name tied through the DNA section of Appendix IX (same order); also called B-000000395-000V) VH: not shown VL: QAVLTQPSSVSGAPGQRVTISCTGTSSNIGAPYDVNWYQQLPGIAPKLLISGNTNRPSGVPDRFSGSKSGASASLAITGLQADDEADYYCQSYDHSLSGWVFGGGTKVTVLG",–
–,–,< 10,"WC-97 (antibody, human IgG1, lambda, V domains shown, also called N1wc97; hN1wc-97) VH: EVQLVQSGAEVKKPGASVKVSCKASGYNFTGYYMHWVRQAPGQGLEWMGWINPNSGGTNYAQKFQGRVAMTRDTSISTAYMELSRLRSDDSAVYYCATDSFDYWGRGTTVTVSS VL: QSVLTQPPSVSGAPGQRVTISCTGTSSNIGAGYDVQWYQQLPGTAPKVLMYGNSNRPSGVPDRFSGSKSGTSASLAITGLQAEDEADYYCQSYDSSLSGSLFGTGTKVTVLQ",MFI [5]: 11 to 100 mfi; Kd [6]: 7.87 nM; koff [6]: 0.000438 s⁻¹; kon [6]: 55600 M⁻¹ s⁻¹
< 5,> 1000,–,"FL-SKNAS-C2-514 (antibody, human IgG1, lambda, V domains shown, full IgG1/lambda chains; name tied through the DNA section of Appendix IX (same order); also called B-000000402-000X) VH: EVQLVQSGAEVKEPGESLRISCKASGYDFSNYWIAWVRQMPGKGLEWMGIIYPGDSDTRYSPSFQGQVTISVDRSISTAYLQWSSLKASDTALYYCSRPTYWSTTWGREFDYWGQGTLVTVSS VL: SYELTQPPSVSVSPGQTATITCSGDALPKKYAYWYQQKSGQAPVLVVYEDSKRPSGIPERFSGSSSGTMATLTISGAQVEDEADYYCYSTDSSGNHWVFGGGTKLTVLG",–

# Continued, binder first:
Binder,"hN3, inhibition of Luc activity at [166 nM] Mab [1] [%]",MFI [2] [mfi],"hN3, inhibition of Luc activity at [166 nM] Mab [4] [%]",also measured
"FL-JEG3-C2-11 (antibody, human IgG1, lambda, V domains shown, full IgG1/lambda chains; name tied through the DNA section of Appendix IX (same order); also called JEG-C2-11; B-000000399-000E) VH: QLQLVETGGGLVQPVGSLRLSCAASGFSFDNYAMSWVRQAPGKGLEWVSSISGSGGQIFYADSVKGRFTISRDNAKNTLVLQMNSLRVDDTAVYYCARDFYRTPGYNTNWGYWGRGTMVTVSS VL: SYVLTQPPSVSVSPGETASISCSGDGLGNKYVAWYQQKPGQSPVLVIQQDSKRPSGIPERFSGSNSGDTATLTISGTQSLDEGDYYCQAWDRPAVIFGGGTKLTVLG",< 5,> 1000,–,–
"A2780-C2-16 (antibody, human IgG1, lambda, V domains shown, full IgG1/lambda chains; name tied through the DNA section of Appendix IX (same order); also called B-000000397-000M) VH: EVQLVQSGAEVKKPGSSVKVSCKASGGTFSSFAFSWVRQAPGQGLDWMGRIIPILGRTNYAQKFQGRVTFTADTSTSTVYMELSSLSSEDTAVYYCARDREYSLSLGGSDYWGQGTLVTVSS VL: QAVLTQPSSVSGAPGQRVTISCIGSSSNIGAGYDVHWYRQPPGTAPQLLIYANTNRPSGVPDRFSGSRSGTSASLAITGIQAEDEADYYCQSYDSSLSGRVFGGGTKVTVLG",< 15,> 1000,–,–

# Reference: US20110286916A1 (published 2011)
